From PMC8561297

Tests used:
[1] = target: von Willebrand factor (human (endogenous in whole blood)) (UniProt P04275)
[2] = target: von Willebrand factor (human (endogenous in whole blood)) (UniProt P04275); remark: listed apart in the source

platelet adhesion at the stenosis apex, control (platelets/mm^2) [1]: 3930
platelet adhesion in the stenosis outlet, control (platelets/mm^2) [1]: 5040
platelet rolling velocity at the stenosis apex, control [1]: 4.41 μm s^-1
platelet rolling velocity at the stenosis apex, with scFv A1 [1]: 4.6 μm s^-1
share of slow-rolling platelets at constant shear [2]: 36%
share of slow-rolling platelets at shear rate gradient [2]: 52.9%
Substance: platelet GPIbα (from UniProt P07359 17-652) (receptor)
